US20260265332A1, “PROCESS FOR PREPARATION OF DUAL GIP/GLP-1 PEPTIDES HAVING CONTROLLED PARTICLE SIZE” (ASSIA CHEMICAL INDUSTRIES LTD., priority 2023, published 2026)
“And” between values parts separate entries of the source, which are not always exact repeats. Equal entries are not always repeated.

Tests used:
Assay type in all cases: physicochemical
[1] = Bulk density (BD), USP 2014 Method I (616) Bulk Density and Tapped Density of Powders; conditions: lyophilized Tirzepatide powder, before particle size reduction
Method: Bulk density (BD) was measured according to USP 2014 Method I (616) Bulk Density and Tapped Density of Powders.

[2] = Flowability, flow through an orifice (BEP2 Flowability Tester, 25 mm nozzle); conditions: lyophilized Tirzepatide powder; flow through funnel, 25 mm aperture
Source text: Instrument: BEP2 Flowability Tester from Copley Scientific, with Funnel Attachment and Manually Operated Stirrer with a nozzle corresponding to aperture size of 25 mm.
Methodology: Flow Through an Orifice
The test sample was introduced into the funnel and the time required for the entire sample to flow out of the funnel was measure using a suitable stopwatch.
The flow rate results are expressed in terms of mass vs time, i.e., grams per second.

[3] = Particle size distribution by laser diffraction (Malvern Mastersizer 3000, Mie theory, Isopar-G); conditions: Tirzepatide powder after particle size reduction (jet milling or sieving)
Method: As used herein, particle size distribution is determined by means of laser diffractometry. More specifically, unless otherwise indicated, the particle size was determined using a Mastersizer 3000 from Malvern Instruments. Preferably, particle size and particle size distribution are determined by laser light diffraction, using Mie theory, and Isopar-G dispersant (isoparaffinic fluid (CAS No) 64742-48-9)) refractive index 1.42.
It will be understood that the term “D(90)” as used herein refers to a particle size distribution where 90% of the volume of particles have a diameter lower than the D(90) value.
• Instrumentation: Malvern Laser Diffraction Mastersizer 3000, Hydro My cell • Measuring range: 0.01-3500 mcm • Analysis model: Mie Theory • Powder RI: 1.488, Absorption: 1 • Dispersant name: Isopar-G • Dispersant RI: 1.42 • Speed rate of the flow cell: 2500 • Internal Sonication: 1 minute • Recirculation time: 1 minute

Substance	BD (bulk density) [1] [g/mL]	flowability [2]	particle size d(0.9) [3]
Tirzepatide [Example 1A]	0.13	9.7 g/s	
Tirzepatide [Example 1B]	0.007	non flowable	
Tirzepatide [Example 1]	0.1	6.1 g/s	
Tirzepatide [Example 2]			21.9 μm
Tirzepatide [Example 3A]			59 μm and 59.1 μm
Tirzepatide [Example 3B]			128 μm and 128.0 μm
Tirzepatide [Example 3]			31 μm and 30.9 μm
